Biological target: the molecule itself
Experiment: SEC-MALS; 100 μl of Ns at 0.1 or 0.2 mg/ml (~5 or 10 µM) on Superdex 200 10/30 increase GL; 20 mM HEPES pH 7.5, 100 mM KCl, 5 mM magnesium acetate, 200 mM arginine-HCl, 1 mM DTT, 2 mM sodium azide

B1: isolated Ns (isoNs, residues 1–190) of firefly luciferase (domain or fragment, UniProt P08659 1-190, looked up)
chain: MEDAKNIKKGPAPFYPLEDGTAGEQLHKAMKRYALVPGTIAFTDAHIEVNITYAEYFEMSVRLAEAMKRYGLNTNHRIVVCSENSLQFFMPVLGALFIGVAVAPANDIYNERELLNSMNISQPTVVFVSKKGLQKILNVQKKLPIIQKIIIMDSKTDYQGFQSMYTFVTSHLPPGFNEYDFVPESFDRDK
notes: firefly luciferase (FLuc, 550 residues), UniProt Q27758_PHOPY, residues 1-190 (Ns subdomain), off the ribosome; The truncations carried an N-terminal His-SUMO tag; The printed monomer mass of ~21.5 kDa fits the cleaved fragment; source: E. coli BL21, purified (HisTrap, Ulp1 cleavage, reverse IMAC, Superdex gel filtration); not shown: His, N-terminal, cleaved; SUMO, N-terminal, cleaved
  stoichiometry N: 2
